# Earlier results as cited in PMC10766771.
# Test system: His154
# Assay: other (pH dependence of the redox potential, electrochemistry)
# Conditions: oxidized [2Fe-2S] cluster, isolated fragment
substance,measurement,value
"Rieske [2Fe-2S] iron-sulfur protein (cytochrome bc1-type), isolated soluble fragment (Thermus thermophilus)",pKa,7.8
